Measured values as given in patent US20220119534A1 (DRAGONFLY THERAPEUTICS, published 2022).
Several values for one entry are separate records, joined by “and”; a condition that tells them apart may be missing. Equal values may be shown once. Each block holds one binder with its values, some of them ahead of it.

Assays:
[1] = target: T1, Human CD16a V158 (FcγRIIIa V158) (human, UniProt P08637 17-208, biotinylated (site not stated)); assay: SPR; biotinylated CD16a V158 captured on SA chip, TriNKET as analyte; 1:1 kinetic fit; after 4 wks 40 C in phosphate/citrate/NaCl pH 7.8
T1 construct: V158 is the allele name in mature numbering; also called hCD16aV; hCD16a V158
T1 sequence (P08637 17-208 F176V limits assumed): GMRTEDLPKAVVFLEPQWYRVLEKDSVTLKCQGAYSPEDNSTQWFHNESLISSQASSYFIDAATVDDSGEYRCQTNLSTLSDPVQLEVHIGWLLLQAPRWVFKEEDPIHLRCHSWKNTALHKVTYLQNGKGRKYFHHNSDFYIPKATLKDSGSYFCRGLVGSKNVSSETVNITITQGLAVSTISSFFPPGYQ

Human CD16b = target: T2, Human CD16b (human, UniProt O75015 17-200, limits assumed, biotinylated); assay: SPR, summary of FcγR affinities
T2 construct: Bought recombinant receptor; also called hFcγRIIIb
T2 sequence (O75015 17-200 limits assumed): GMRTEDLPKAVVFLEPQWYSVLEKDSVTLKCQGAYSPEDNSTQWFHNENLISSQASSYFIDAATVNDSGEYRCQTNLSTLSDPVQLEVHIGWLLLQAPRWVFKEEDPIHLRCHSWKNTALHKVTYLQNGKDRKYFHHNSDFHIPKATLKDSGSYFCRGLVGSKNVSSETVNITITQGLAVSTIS

Human CD32a R131 = target: T3, Human CD32a R131 (human, UniProt P12318 36-218, limits assumed, biotinylated); assay: SPR, summary of FcγR affinities
T3 construct: Bought recombinant receptor; also called hFcγRIIa R131
T3 sequence (looked up): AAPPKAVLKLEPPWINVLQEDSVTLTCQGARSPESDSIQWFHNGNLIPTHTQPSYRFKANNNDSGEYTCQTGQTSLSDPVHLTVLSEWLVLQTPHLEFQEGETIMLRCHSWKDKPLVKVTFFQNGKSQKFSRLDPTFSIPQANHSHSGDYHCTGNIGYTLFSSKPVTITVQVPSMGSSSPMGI

Human CD16a F158 = target: T4, Human CD16a F158 (human, UniProt P08637 17-208, biotinylated); assay: SPR, summary of FcγR affinities
T4 construct: Bought recombinant receptor; also called hFcγRIIIa F158
T4 sequence (P08637 17-208 limits assumed): as the sequence (P08637 17-208 F176V limits assumed) above, with V160F counted along it

Human CD64 = target: T5, Human CD64 (human, UniProt P12314 16-288, biotinylated); assay: SPR, summary of FcγR affinities
T5 construct: Bought recombinant receptor; also called hFcγRI; Human CD64 (FcγRI)
T5 sequence (P12314 16-288 limits assumed): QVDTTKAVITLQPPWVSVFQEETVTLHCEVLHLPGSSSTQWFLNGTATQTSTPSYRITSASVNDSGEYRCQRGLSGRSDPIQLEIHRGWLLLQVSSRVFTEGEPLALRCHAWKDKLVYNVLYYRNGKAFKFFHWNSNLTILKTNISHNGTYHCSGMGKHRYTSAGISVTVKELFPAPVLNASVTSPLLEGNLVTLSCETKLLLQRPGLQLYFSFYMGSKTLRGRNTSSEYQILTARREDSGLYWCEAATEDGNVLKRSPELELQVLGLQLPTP

Human CD16a V158 = target: T6, Human CD16a V158 (human, UniProt P08637 17-208, biotinylated); assay: SPR; sample after 4 weeks at 40 C in CST pH 7.0
T6 construct: Bought recombinant receptor; also called hCD16a (V158); hFcγRIIIa V158
T6 sequence (P08637 17-208 F176V limits assumed): as the sequence (P08637 17-208 F176V limits assumed) above

mFc-hNKG2D = target: T7, mFc-hNKG2D (human, UniProt P26718 73-216); assay: SPR; sample after 4 weeks at 40 C in CST pH 7.0
T7 construct: extracellular domain; Recombinant mFc-tagged NKG2D dimer, made in house; also called human NKG2D; not shown: mouse Fc tag
T7 sequence (looked up): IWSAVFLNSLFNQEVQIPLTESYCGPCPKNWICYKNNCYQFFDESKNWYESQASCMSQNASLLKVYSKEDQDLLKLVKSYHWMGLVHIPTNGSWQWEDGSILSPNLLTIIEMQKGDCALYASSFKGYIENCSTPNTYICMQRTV

[2] = target: T8, recombinant cynomolgus CD16 (cynomolgus monkey, UniProt Q8SPW2 17-208, biotinylated); assay: SPR 25C, steady state
T8 construct: also called cFcγRIII; cyno CD16
T8 sequence (Q8SPW2 17-208 limits assumed): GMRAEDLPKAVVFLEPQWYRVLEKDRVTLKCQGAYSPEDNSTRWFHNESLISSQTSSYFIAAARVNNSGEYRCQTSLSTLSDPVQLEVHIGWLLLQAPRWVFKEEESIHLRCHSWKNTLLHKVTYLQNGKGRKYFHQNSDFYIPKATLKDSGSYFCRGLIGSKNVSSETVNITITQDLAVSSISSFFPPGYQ
Source text: Human and cyno CD64, high and low affinity alleles of CD16a (V158 and F158, respectively), two alleles of CD32a (H131 and R131), CD16b, CD32b and cynomolgus CD16 were captured via biotin on a primed Biacore chip, prepared according to the manufacturer's instructions.

Kd [1]: 216 nM | koff [1]: 0.0209 s⁻¹ | kon [1]: 96700 M⁻¹ s⁻¹
B1: F3'-1602 TriNKET (bispecific antibody, human IgG1, kappa)
chain: QLQLQESGPGLVKPSETLSLTCTVSGFSLTNYGLHWIRQPPGKCLEWIGVIWSGGKTDYNPSLKSRVTISKDTSKNQFSLKLSSVQAADTAVYYCAKYDYDDSLDYWGQGTLVTVSSGGGGSGGGGSGGGGSGGGGSDIQMTQSPSSLSASVGDRVTITCHASQNINFWLSWYQQKPGKAPKLLIYEASNLHTGVPSRFSGSGSGTRFTLTISSLQPEDIATYYCQQSHSYPLTFGCGTKLEIKGSDKTHTCPPCPAPELLGGPSVFLFPPKPKDTLMISRTPEVTCVVVDVSHEDPEVKFNWYVDGVEVHNAKTKPREEQYNSTYRVVSVLTVLHQDWLNGKEYKCKVSNKALPAPIEKTISKAKGQPREPRVYTLPPCRDELTKNQVSLTCLVKGFYPSDIAVEWESNGQPENNYKTTPPVLVSDGSFTLYSKLTVDKSRWQQGNVFSCSVMHEALHNHYTQKSLSLSPG
heavy: EVQLVESGGGLVKPGGSLRLSCAASGFTFSSYSMNWVRQAPGKGLEWVSSISSSSSYIYYADSVKGRFTISRDNAKNSLYLQMNSLRAEDTAVYYCARGAPIGAAAGWFDPWGQGTLVTVSSASTKGPSVFPLAPSSKSTSGGTAALGCLVKDYFPEPVTVSWNSGALTSGVHTFPAVLQSSGLYSLSSVVTVPSSSLGTQTYICNVNHKPSNTKVDKKVEPKSCDKTHTCPPCPAPELLGGPSVFLFPPKPKDTLMISRTPEVTCVVVDVSHEDPEVKFNWYVDGVEVHNAKTKPREEQYNSTYRVVSVLTVLHQDWLNGKEYKCKVSNKALPAPIEKTISKAKGQPREPQVCTLPPSRDELTENQVSLTCLVKGFYPSDIAVEWESNGQPENNYKTTPPVLDSDGSFFLYSWLTVDKSRWQQGNVFSCSVMHEALHNHYTQKSLSLSPG
light: DIQMTQSPSSVSASVGDRVTITCRASQGISSWLAWYQQKPGKAPKLLIYAASSLQSGVPSRFSGSGSGTDFTLTISSLQPEDFATYYCQQGVSFPRTFGGGTKVEIKRTVAAPSVFIFPPSDEQLKSGTASVVCLLNNFYPREAKVQWKVDNALQSGNSQESVTEQDSKDSTYSLSSTLTLSKADYEKHKVYACEVTHQGLSSPVTKSFNRGEC
notes: Trispecific F3' format: CLEC12A scFv-Fc paired with NKG2D Fab-Fc; Stressed and control samples of the stability studies are the same molecule; also called AB0237

Kd (Human CD16b): 6.01 µM | Kd (Human CD32a R131): 1400 nM | Kd (Human CD16a F158): 680 nM | Kd (Human CD64): 5.2 nM | Kd (Human CD16a V158): 174 nM | koff (Human CD16a V158): 0.0194 s⁻¹ | kon (Human CD16a V158): 111000 M⁻¹ s⁻¹ | Kd (mFc-hNKG2D): 653 nM | koff (mFc-hNKG2D): 0.121 s⁻¹ | kon (mFc-hNKG2D): 185000 M⁻¹ s⁻¹
B2: AB0192 TriNKET (other)
chain: EVQLVESGGGVVQPGGSLRLSCAASGFTFNAFGMHWVRQAPGKCLEWVAFISSGSTSIYYANTVKGRFTISRDNSKNTLYLQMNSLRAEDTAVYYCARDGYPTGGAMDYWGQGTSVTVSSGGGGSGGGGSGGGGSGGGGSDIQMTQSPSSLSASVGDRVTITCKASQDIYNYLSWFQQKPGKAPKPLIYRANILVSGVPSRFSGSGSGQDYTFTISSLQPEDIATYYCLQFDAFPFTFGCGTKLEIKGSDKTHTCPPCPAPELLGGPSVFLFPPKPKDTLMISRTPEVTCVVVDVSHEDPEVKFNWYVDGVEVHNAKTKPREEQYNSTYRVVSVLTVLHQDWLNGKEYKCKVSNKALPAPIEKTISKAKGQPREPRVYTLPPCRDELTKNQVSLTCLVKGFYPSDIAVEWESNGQPENNYKTTPPVLVSDGSFTLYSKLTVDKSRWQQGNVFSCSVMHEALHNHYTQKSLSLSPG
heavy: EVQLVESGGGLVKPGGSLRLSCAASGFTFSSYSMNWVRQAPGKGLEWVSSISSSSSYIYYADSVKGRFTISRDNAKNSLYLQMNSLRAEDTAVYYCARGAPIGAAAGWFDPWGQGTLVTVSSASTKGPSVFPLAPSSKSTSGGTAALGCLVKDYFPEPVTVSWNSGALTSGVHTFPAVLQSSGLYSLSSVVTVPSSSLGTQTYICNVNHKPSNTKVDKKVEPKSCDKTHTCPPCPAPELLGGPSVFLFPPKPKDTLMISRTPEVTCVVVDVSHEDPEVKFNWYVDGVEVHNAKTKPREEQYNSTYRVVSVLTVLHQDWLNGKEYKCKVSNKALPAPIEKTISKAKGQPREPQVCTLPPSRDELTENQVSLTCLVKGFYPSDIAVEWESNGQPENNYKTTPPVLDSDGSFFLYSWLTVDKSRWQQGNVFSCSVMHEALHNHYTQKSLSLSPG
light: DIQMTQSPSSVSASVGDRVTITCRASQGISSWLAWYQQKPGKAPKLLIYAASSLQSGVPSRFSGSGSGTDFTLTISSLQPEDFATYYCQQGVSFPRTFGGGTKVEIKRTVAAPSVFIFPPSDEQLKSGTASVVCLLNNFYPREAKVQWKVDNALQSGNSQESVTEQDSKDSTYSLSSTLTLSKADYEKHKVYACEVTHQGLSSPVTKSFNRGEC
notes: the condition stands under assay; also called AB0192 Lot AB0192-005

Kd [2]: 315 nM and 294 nM and 302 nM
B3: F3'-1602 TriNKET (other)
chain: QLQLQESGPGLVKPSETLSLTCTVSGFSLTNYGLHWIRQPPGKCLEWIGVIWSGGKTDYNPSLKSRVTISKDTSKNQFSLKLSSVQAADTAVYYCAKYDYDDSLDYWGQGTLVTVSSGGGGSGGGGSGGGGSGGGGSDIQMTQSPSSLSASVGDRVTITCHASQNINFWLSWYQQKPGKAPKLLIYEASNLHTGVPSRFSGSGSGTRFTLTISSLQPEDIATYYCQQSHSYPLTFGCGTKLEIKGSDKTHTCPPCPAPELLGGPSVFLFPPKPKDTLMISRTPEVTCVVVDVSHEDPEVKFNWYVDGVEVHNAKTKPREEQYNSTYRVVSVLTVLHQDWLNGKEYKCKVSNKALPAPIEKTISKAKGQPREPRVYTLPPCRDELTKNQVSLTCLVKGFYPSDIAVEWESNGQPENNYKTTPPVLVSDGSFTLYSKLTVDKSRWQQGNVFSCSVMHEALHNHYTQKSLSLSPG
heavy: EVQLVESGGGLVKPGGSLRLSCAASGFTFSSYSMNWVRQAPGKGLEWVSSISSSSSYIYYADSVKGRFTISRDNAKNSLYLQMNSLRAEDTAVYYCARGAPIGAAAGWFDPWGQGTLVTVSSASTKGPSVFPLAPSSKSTSGGTAALGCLVKDYFPEPVTVSWNSGALTSGVHTFPAVLQSSGLYSLSSVVTVPSSSLGTQTYICNVNHKPSNTKVDKKVEPKSCDKTHTCPPCPAPELLGGPSVFLFPPKPKDTLMISRTPEVTCVVVDVSHEDPEVKFNWYVDGVEVHNAKTKPREEQYNSTYRVVSVLTVLHQDWLNGKEYKCKVSNKALPAPIEKTISKAKGQPREPQVCTLPPSRDELTENQVSLTCLVKGFYPSDIAVEWESNGQPENNYKTTPPVLDSDGSFFLYSWLTVDKSRWQQGNVFSCSVMHEALHNHYTQKSLSLSPG
light: DIQMTQSPSSVSASVGDRVTITCRASQGISSWLAWYQQKPGKAPKLLIYAASSLQSGVPSRFSGSGSGTDFTLTISSLQPEDFATYYCQQGVSFPRTFGGGTKVEIKRTVAAPSVFIFPPSDEQLKSGTASVVCLLNNFYPREAKVQWKVDNALQSGNSQESVTEQDSKDSTYSLSSTLTLSKADYEKHKVYACEVTHQGLSSPVTKSFNRGEC
notes: CLEC12A scFv-Fc, NKG2D A49MI Fab-Fc, human IgG1 Fc; also called AB0237
